Data reported in US20040052799A1, “Nucleic acid and amino acid sequences relating to Helicobacter pylori for diagnostics and therapeutics” (Astra Aktiebolag, priority 1996, published 2004).

How the values were obtained:
[1] = substrate: N[C@H](CCC(=O)O)C(=O)O; assay: Glutamate racemase activity, conversion of D-glutamate to L-glutamate (two enzyme and single enzyme coupled assays); assay type: biochemical, H. pylori; details: other: purified recombinant enzyme; 37.0 °C
Experimental: The activity of glutamate racemase, interconversion of the enantiomers of glutamic acid, was measured using D-glutamic acid as substrate. The method of Gallo and Knowles (Gallo, K. A. and Knowles, J. R., 1993, Biochmistry 32, 3981-3990) that was used to measure the glutamate racemase activity of Lactobacillus fermenti was adapted for the measurement of glutamate racemase activity of the H. pylori murI gene product isolated as a recombinant protein from E. coli. […] Initial rates were determined by following the increase in absorbance at 500 nm in a reaction volume of 200 μl containing 50 mM Tris-HCl, pH 7.8, 4% v/v glycerol, 10 mM NAD, 2 mM INT, 60 Units/ml L-glutamate dehydrogenase, 5 Units/ml diaphorase, and varying concentrations of either substrate (from 0.063 mM to 250 mM D-glutamic acid) or purified enzyme (from 1 μg to 50 μg). After a preincubation of all reagents except either the substrate (D-glutamic acid) or the enzyme (murI gene product) for a period of 5 minutes, reactions were initiated by adding the missing ingredient (i.e., the enzyme or the subtrate, as required), and the increase in optical density at 500 nm was measured in a Microplate Spectophotometer System (Molecular Devices, Spectra MAX 250). Measurements were followed for 20 minutes, and initial velocities were derived by calculating the maximum slope for the absorbance increases. […]

[2] = substrate: N[C@@H](CC=O)C(=O)O; assay: Asd assay, reverse reaction, NADPH formation; assay type: biochemical, E. coli; details: other: pH 7.5

Protein | Km [1] [µM] | Km [2] [µM]
H. pylori glutamate racemase (murI gene product) (Helicobacter pylori J99) (protein, made in house; host or cells: E. coli BL21(DE3) carrying pET-23-murI and pACYC-groE (GroES/GroEL co-expressed)) MKIGVFDSGVGGFSVLKSLLKARLFDEIIYYGDSARVPYGTKDPTTIKQFGLEALDFFKPHEIELLIVACNTASALALEEMQKYSKIPIVGVIEPSILAIKRQVEDKNAPILVLGTKATIQSNAYDNALKQQGYLNISHLATSLFVPLIEESILEGELLETCMHYYFTPLEILPEVIILGCTHFPLIAQKIEGYFMGHFALPTPPLLIHSGDAIVEYLQQKYALKNNACTFPKVEFHASGDVIWLERQAKEWLKL | 100 | –
E. coli Asd (Escherichia coli K-12) (protein, made in house; host or cells: E. coli HMS174 pLysS, pET28b) MKNVGFIGWRGMVGSVLMQRMVEERDFDAIRPVFFSTSQLGQAAPSFGGTTGTLQDAFDLEALKALDIIVTCQGGDYTNEIYPKLRESGWQGYWIDAASSLRMKDDAIIILDPVNQDVITDGLNNGIRTFVGGNCTVSLMLMSLGGLFANDLVDWVSVATYQAASGGGARHMRELLTQMGHLYGHVADELATPSSAILDIERKVTTLTRSGELPVDNFGVPLAGSLIPWIDKQLDNGQSREEWKGQAETNKILNTSSVIPVDGLCVRVGALRCHSQAFTIKLKKDVSIPTVEELLAAHNPWAKVVPNDREITMRELTPAAVTGTLTTPVGRLRKLNMGPEFLSAFTVGDQLLWGAAEPLRRMLRQLA | – | 104
